Assay results taken from patent US20200129630A1, “METHODS FOR TREATING CANCER” (BicycleRD Limited, priority 2018, published 2020).
Numbered stars: 1 amine (or outer) side, 2 acyl side, 3 side chain; on linkers, the order of the positions; unused ones are H or OH. Bridge positions count the residues as written; N and C are the ends. Square brackets hold non-standard residues; d marks the D form. Peptide text beside a SMILES is read from it. * marks the point of attachment. X1 = COc1cc2cc(c1Cl)N(C)C(=O)C[C@H](OC(=O)[C@H](C)N(C)C(=O)CCSSC(C)CCC(=O)*)[C@]1(C)O[C@H]1[C@H](C)[C@@H]1C[C@@](O)(NC(=O)O1)[C@H](OC)/C=C/C=C(\C)C2; 1Nal = N[C@@H](Cc1cccc2ccccc12)C(=O)O; TBMB = c1c(C[*:1])cc(C[*:3])cc1C[*:2]; Tle = CC(C)(C)[C@H](N)C(=O)O; βAla = NCCC(=O)O; Sar = CNCC(=O)O

Key:
[1] = GLP-compliant 28-day repeat dose toxicity study, monkey; type: in vivo, Cynomolgus monkeys
Experimental: In a GLP-compliant study in Cynomolgus monkeys, the highest non-severely toxic dose (HNSTD) of BT1718 was established to be 18 mg/m^2 administered twice weekly, equivalent to a human dose of 0.48 mg/kg. In a GLP-compliant study in the rat, the MTD was not reached with the highest administered dose 6 mg/m^2 twice weekly. At this dose level, there was kidney toxicity (with no effect on clinical condition) and also testicular toxicity. After 28 days off-dose, there was evidence of partial recovery of kidney-related findings, but no recovery of testicular effects at this dose level. […] Therefore, the MTD for rat for twice weekly dosing was considered to be between 1 and 1.5 mg/kg.

NCI-H1975 = test: In vitro cytotoxicity (CellTiter-Glo) NCI-H1975; type: cell-based; conditions: NCI-H1975, NSCLC
Description: (§1) Table 1 and Table 2 Notes: in general regression and stable disease correlated with the in vitro cytotoxicity and MT1-MMP expression. Female BALB/c mice n=3/group animals dosed twice per week except EBC-1 three per week. Tumor growth inhibition (TGI) (%)=[1−(Ti−T0)/(Vi−V0)]×100; Ti is the average tumor volume of a treatment group on a given day, TO is the average tumor volume of the treatment group on the day of treatment start, Vi is the average tumor volume of vehicle control group on the same day with Ti, and V0 is the average tumor volume of vehicle group on the day of treatment start. A one-way ANOVA was performed to compare tumor volume among groups, and when a significant F-statistics (a ratio of treatment variance to the error variance) was obtained, comparisons between groups were carried out with Games-Howell test. All data were analyzed using GraphPad Prism.* p<0.05, ** p<0.01, *** p<0.001. In vitro cytotoxicity was measured by CellTiter-Glo®, MT1-MMP membrane H score from immunohistochemistry staining, NM not measured. Tumor size on Day 1 of dosing.

HCC-1806 = test: In vitro cytotoxicity (CellTiter-Glo) HCC-1806; type: cell-based; conditions: HCC-1806, Breast
Description: as §1

[2] = Stability in whole blood in vitro, mouse; type: in vitro ADME; conditions: 37° C.
Experimental: (§2) The stability of BT1718 was assessed in plasma and whole blood from humans, monkey, dog, mouse and rat. […] The mechanism for the difference in stability of the BT1718 peptide in whole blood between the different species is unknown.

[3] = Plasma protein binding, mouse; type: in vitro ADME, mice; conditions: read-out: free fraction
Experimental: (§3) Plasma protein binding of BT1718 was also assessed. The mean plasma protein binding of the BT1718 peptide ranged from 87% to 98%, with the free fraction of BT1718 being 13% in human, 2.6% in rats, 7.5% in mice, 3.8% in monkey and 1.5% in dog plasma, the results had no correlation to the plasma and whole blood stability data. […] Plasma protein binding of unconjugated DM1, has previously been reported, with the unbound fraction being 7% in human and monkey and 3% in rat.

[4] = ECG, respiratory plethysmography and blood pressure (GLP safety pharmacology); type: in vivo; conditions: monkeys 0.2, 0.5, 1 and 1.5 mg/kg twice weekly
Experimental: As part of the Good Laboratory Practice (GLP)-compliant toxicity studies, a core battery of safety pharmacology tests were performed. […] Electrocardiogram (ECG) and respiratory plethysmography measurements were taken in monkeys dosed at 0.2, 0.5, 1 and 1.5 mg/kg (2.4, 6, 12 and 18 mg/m^2 respectively) twice weekly on Day 4, Day 22 (following 2nd and 7th dose) and in the recovery period (for animals dosed with 0, 6 and 12 mg/m^2 twice weekly). Blood pressure (BP) measurements were also evaluated in the same monkeys on Day 1 and Day 25 and in the recovery period. […] It is therefore concluded that BT1718 has no cardiac, respiratory or behavioral liability at the doses and schedule tested in the GLP toxicity studies.

HCT-15 = test: In vitro cytotoxicity (CellTiter-Glo) HCT-15; type: cell-based; conditions: HCT-15, Colorectal
Description: as §1

[5] = Plasma protein binding, rat; type: in vitro ADME, rats; conditions: read-out: free fraction
Experimental: as §3

[6] = PK samples in EBC-1 xenograft study; conditions: female, BALB/c, mouse, plasma, iv
HT-29 = test: In vitro cytotoxicity (CellTiter-Glo) HT-29; type: cell-based; conditions: HT-29, Colorectal
Description: as §1

EBC-1 = test: In vitro cytotoxicity (CellTiter-Glo) EBC-1; type: cell-based; conditions: EBC-1, Lung
Description: as §1

[7] = Stability in whole blood in vitro, rat; type: in vitro ADME; conditions: 37° C.
Experimental: as §2

[8] = LC-MS/MS quantification of DM1 in patient tumor samples; type: in vivo, patients; conditions: three patient tumor samples
Experimental: A quantitative high performance liquid chromatography-tandem mass spectrometry (LC-MS/MS) method for the quantification of DM1 in tissue samples was developed.
DM1 was administered as complexed with a bicyclic peptide in […]. In order to determine the concentration of the free DM1 the conjugated molecule was reduced and subsequently derivatized with vinyl pyridine.
The same sample preparation procedure used for PK determination in the GLP pre-clinical studies, is applied for the determination of DM1 in tissue samples, In short: after tissue homogenization samples were reduced with TCEP prior derivatization by vinyl-pyiridine. […]
The homogenization method was optimized as follows: • 1) Thaw the tissue samples at room temperature. • 2) Weight the desired amount of tissue in a Precellys 2 mL Reinforced tube on an Analytical Balance. • 3) Use the weight of the tissue to calculate the volume of solution. […] Homogenization solution: (NaCl (0.9%): SDS (0.2 mg/mL) (50:50 v/v %)) • 4) Add the calculated amount of solution to the tissue. • 5) Vortex for approximately 5 seconds. • 6) Pre-cool the samples in a wet ice bath for approximately 8 minutes • 7) Run the Precellys-24 Dual homogenizer at 5000 rpm in five sessions of 40 seconds. • 8) Centrifuge the homogenate samples 3 minutes at 3000 rpm at 4° C. using a 5810-R centrifuge.

In the case of `COc1cc2cc(c1Cl)N(C)C(=O)C[C@H](OC(=O)[C@H](C)N(C)C(=O)CCSSC(C)CCC(=O)NCCC(=O)N(C)CC(=O)N(C)CC(=O)N(C)CC(=O)N(C)CC(=O)N(C)CC(=O)N(C)CC(=O)N(C)CC(=O)N(C)CC(=O)N(C)CC(=O)N(C)CC(=O)N[C@@H](C)C(=O)N[C@H]1CSCc3cc4cc(c3)CSC[C@H](NC(=O)[C@@H](C)NC(=O)[C@H](Cc3cccc5ccccc35)NC(=O)[C@H](CCC(=O)O)NC(=O)[C@H](CC(N)=O)NC(=O)[C@@H](C)NC1=O)C(=O)N[C@@H](CCC(=O)O)C(=O)N[C@@H](CC(=O)O)C(=O)N[C@@H](Cc1ccccc1)C(=O)N[C@@H](Cc1ccc(O)cc1)C(=O)N[C@@H](CC(=O)O)C(=O)N[C@@H](C(C)(C)C)C(=O)N[C@H](C(N)=O)CSC4)[C@]1(C)O[C@H]1[C@H](C)[C@@H]1C[C@@](O)(NC(=O)O1)[C@H](OC)/C=C/C=C(\C)C2` (stereo partly shown) [BT1718] ({X1-βAla}-[Sar][Sar][Sar][Sar][Sar][Sar][Sar][Sar][Sar][Sar]AC[dA]NE[1Nal][dA]CEDFYD[Tle]C-NH2; linker 12-18-25 via TBMB (inferred)), the HNSTD ([1]; 28 day-repeat dose GLP monkey study, twice weekly) is reported as 1.5 mg/kg, the “highest non-severely toxic dose (HNSTD)” value ([1]; Cynomolgus monkeys, GLP, twice weekly) is reported as 18 mg/m^2 and the GI-related findings ([1]; GLP monkey) is reported as “No GI-related findings”. The bladder changes ([1]; GLP monkey) was “No bladder changes”, the liver toxicity ([1]; GLP monkey up to 1.5 mg/kg, 18 mg/m^2 twice weekly) was “No liver toxicity” and the “local toxicity at or around injection site” value ([1]; GLP monkey, 0.5 mg/kg (6 mg/m^2) twice weekly and above) was “black colouration of the skin”. The renal changes ([1]; GLP monkey, highest dose tested 1.5 mg/kg (18 mg/m^2)) was “No renal changes”, the “onset dose of minimal axonal degeneration” value ([1]; GLP monkey, twice weekly) was 1 mg/kg and the “HNSTD, equivalent human dose” value ([1]; from 18 mg/m^2 twice weekly in monkeys) was 0.48 mg/kg. For the same compound, the “anti-drug antibodies (ADAs) in serum” value ([1]; monkey 28-day GLP study) was “negative”, the reproductive organ findings ([1]; monkey studies) was “No changes in reproduction organs” and the increase in platelets ([1]; monkeys 1 mg/kg (12 mg/m^2) twice weekly or above) was 1.4-2.5 ×. For the same compound, the lymphoid findings ([1]; monkeys 1 mg/kg or 1.5 mg/kg twice weekly) was “Reversible thymus atrophy and decreased germinal centres in lymph nodes”, the “white blood cell (WBC) reduction, maximum” value ([1]; monkeys, onset 0.5 mg/kg (6 mg/m^2) twice weekly, reversible) was 0.11 × and the “reticulocyte reduction, maximum” value ([1]; monkeys, onset 1 mg/kg (12 mg/m^2) twice weekly, reversible) was 0.2 ×. The IC50 (NCI-H1975) was 19.7 nM, the IC50 (HCC-1806) was 1.4 nM and the half-life [2] was > 24 h. For the same compound, the fraction unbound [3] was 0.075, the “ECG, respiratory plethysmography, blood pressure findings” value [4] was “no BT1718 related findings” and the IC50 (HCT-15) was 870 nM. The fraction unbound [5] was 0.026, the Cmax ([6]; 3 mg/kg) was 1.5 ± 0.9 µM and the Cmax ([6]; 10 mg/kg) was 7.6 ± 0.6 µM. The IC50 (HT-29) was 13 nM, the IC50 (EBC-1) was 27 nM and the half-life [7] was > 24 h. The “delivery of DM1 to tumor” value [8] was “delivery of DM1 to tumor in two patients”.
